The values below come from article PMC6595180.

The term stoichiometry N denotes a count of units in the complex or per binding partner.

In assay [1] the target is BG505 SOSIP.664 gp140 trimer (HIV-1 (BG505)). Put plainly: AUC; sedimentation velocity, 20°C, 40,000 rpm, detection at 280 nm, 0.5 mg/mL in formulation buffer (20 mM Tris, 100 mM NaCl pH 7.5); continuous c(s) distribution; also after 0, 1 and 5 freeze-thaw cycles.
Assay [2] has as its target BG505 SOSIP.v4.1-GT1.1 gp140 trimer (HIV-1 (BG505)). The assay is described as above.

BG505 SOSIP.664 gp140 trimer (complex) came in with a stoichiometry N in assay [1] of 3.

“BG505 SOSIP.v4.1-GT1.1 gp140 trimer (complex)” displayed a stoichiometry N in assay [2] of 3.
